Results reported in US10213515B2, “Glycopeptide for contrast agent targeting cancer cells and contrast agent kit containing the same” (priority 2015, dated 2019).

Tested on: HT-29 cells
Experiment: Cytotoxicity depending on the concentration of RR-S-Ac3ManNAz
Type: cell-based, human
Conditions: FIG. 4B

## CC(=O)N[C@@H](CCCCN)C(=O)NCC(=O)N[C@@H](CCCNC(=N)N)C(=O)N[C@@H](CCCNC(=N)N)C(=O)Nc1ccc(COC(=O)OC[C@H]2OC(OC(C)=O)[C@@H](NC(=O)CN=[N+]=[N-])[C@@H](OC(C)=O)[C@@H]2OC(C)=O)cc1 (stereo partly shown) [RR-S-Ac3ManNAz]
  concentration up to which cytotoxicity was not observed: up to 20 μM
